Experimental data taken from publication PMC5608758, “A brain-targeting lipidated peptide for neutralizing RNA-mediated toxicity in Polyglutamine Diseases” (Scientific Reports, 2017).
Entries after “also recorded” stand apart in the source; their conditions may differ. Non-standard residues stand in square brackets, D forms with d. Residues, ends and D or L forms follow the SMILES beside them. hArg = N=C(N)NCCCC[C@H](N)C(=O)O; Orn = NCCC[C@H](N)C(=O)O

Columns and labels:
[1] = target: expanded MJD CAG78 RNA; assay: Isothermal titration calorimetry binding assay, expanded CAG RNA; settings: ITC, 25 °C, 20 mM MOPS pH 7.0, 300 mM NaCl; 0.7 mM peptide titrated into 0.5 µM MJD CAG78 RNA; one binding site model; mean ± S.E.M., at least 3 independent experiments
Method: Experiments were carried out using a MicroCal iTC200 isothermal titration calorimeter (GE Healthcare) at 25 °C. Data were analyzed using the Origin® scientific plotting software version 7 (Microcal Software Inc.). All RNAs and peptides were dissolved in binding buffer (20 mM MOPS, pH 7.0; 300 mM NaCl) and 0.7 mM of peptide was titrated into 0.5 µM of RNA for each experiment. The concentration of RNA was estimated with appropriate extinction coefficients at 260 nm on a Nanodrop 2000 (Thermo Scientific). A reference power of 8 μcal/s was used with an initial 0.5 µl of injection of peptide followed by 2 µl for all subsequent titrations points with a 60 sec initial equilibrium delay and 150 sec pause between injections. The samples were stirred at a speed of 1000 rpm throughout the experiment. The thermal titration data were fitted to the ‘one binding site model’ to determine the dissociation constant (KD). Each experiment was repeated at least 3 times with consistent results obtained.

[2] = system: P3V8; assay: ITC; settings: ITC (MicroCal iTC200): 20 mM MOPS pH 7.0, 300 mM NaCl, 25 C; 0.7 mM peptide titrated into 0.5 uM RNA; one-site model; errors are SEM, n>=3
[3] = system: P3 (P3WT); assay: ITC; settings: ITC (MicroCal iTC200): 20 mM MOPS pH 7.0, 300 mM NaCl, 25 C; 0.7 mM peptide titrated into 0.5 uM RNA; one-site model; errors are SEM, n>=3
[4] = system: P3MT1; assay: ITC; settings: ITC (MicroCal iTC200): 20 mM MOPS pH 7.0, 300 mM NaCl, 25 C; 0.7 mM peptide titrated into 0.5 uM RNA; one-site model; errors are SEM, n>=3
[5] = system: P3MT2; assay: ITC; settings: ITC (MicroCal iTC200): 20 mM MOPS pH 7.0, 300 mM NaCl, 25 C; 0.7 mM peptide titrated into 0.5 uM RNA; one-site model; errors are SEM, n>=3
[6] = system: P3MT3; assay: ITC; settings: ITC (MicroCal iTC200): 20 mM MOPS pH 7.0, 300 mM NaCl, 25 C; 0.7 mM peptide titrated into 0.5 uM RNA; one-site model; errors are SEM, n>=3
[7] = system: P3MT4; assay: ITC; settings: ITC (MicroCal iTC200): 20 mM MOPS pH 7.0, 300 mM NaCl, 25 C; 0.7 mM peptide titrated into 0.5 uM RNA; one-site model; errors are SEM, n>=3
[8] = system: P3MT5; assay: ITC; settings: ITC (MicroCal iTC200): 20 mM MOPS pH 7.0, 300 mM NaCl, 25 C; 0.7 mM peptide titrated into 0.5 uM RNA; one-site model; errors are SEM, n>=3
[9] = system: P3V1; assay: ITC; settings: ITC (MicroCal iTC200): 20 mM MOPS pH 7.0, 300 mM NaCl, 25 C; 0.7 mM peptide titrated into 0.5 uM RNA; one-site model; errors are SEM, n>=3
[10] = system: P3V2; assay: ITC; settings: ITC (MicroCal iTC200): 20 mM MOPS pH 7.0, 300 mM NaCl, 25 C; 0.7 mM peptide titrated into 0.5 uM RNA; one-site model; errors are SEM, n>=3
[11] = system: P3V3; assay: ITC; settings: ITC (MicroCal iTC200): 20 mM MOPS pH 7.0, 300 mM NaCl, 25 C; 0.7 mM peptide titrated into 0.5 uM RNA; one-site model; errors are SEM, n>=3
[12] = system: P3V4; assay: ITC; settings: ITC (MicroCal iTC200): 20 mM MOPS pH 7.0, 300 mM NaCl, 25 C; 0.7 mM peptide titrated into 0.5 uM RNA; one-site model; errors are SEM, n>=3
[13] = system: P3V5; assay: ITC; settings: ITC (MicroCal iTC200): 20 mM MOPS pH 7.0, 300 mM NaCl, 25 C; 0.7 mM peptide titrated into 0.5 uM RNA; one-site model; errors are SEM, n>=3
[14] = system: P3V6; assay: ITC; settings: ITC (MicroCal iTC200): 20 mM MOPS pH 7.0, 300 mM NaCl, 25 C; 0.7 mM peptide titrated into 0.5 uM RNA; one-site model; errors are SEM, n>=3
[15] = system: P3V7; assay: ITC; settings: ITC (MicroCal iTC200): 20 mM MOPS pH 7.0, 300 mM NaCl, 25 C; 0.7 mM peptide titrated into 0.5 uM RNA; one-site model; errors are SEM, n>=3
[16] = system: P3V9; assay: ITC; settings: ITC (MicroCal iTC200): 20 mM MOPS pH 7.0, 300 mM NaCl, 25 C; 0.7 mM peptide titrated into 0.5 uM RNA; one-site model; errors are SEM, n>=3

CC[C@H](C)[C@H](NC(=O)CNC(=O)[C@H](CCCCN)NC(=O)[C@H](CO)NC(=O)[C@H](CCCCNC(=N)N)NC(=O)CNC(=O)[C@H](CC(=O)O)NC(C)=O)C(=O)N[C@@H](C)C(=O)N[C@@H](Cc1ccc(O)cc1)C(=O)N[C@H](C(=O)N[C@@H](CCC(=O)O)C(=O)N[C@@H](Cc1ccccc1)C(=O)N[C@@H](CCCCN)C(N)=O)[C@@H](C)CC [P3V14] (Ac-DG[hArg]SKGIAYIEFK-NH2)
KD [1]: No binding

CC[C@H](C)[C@H](NC(=O)CNC(=O)[C@H](CCCCNC(=N)N)NC(=O)[C@H](CO)NC(=O)[C@H](CCCCN)NC(=O)CNC(=O)[C@H](CC(=O)O)NC(C)=O)C(=O)N[C@@H](C)C(=O)N[C@@H](Cc1ccc(O)cc1)C(=O)N[C@H](C(=O)N[C@@H](CCC(=O)O)C(=O)N[C@@H](Cc1ccccc1)C(=O)N[C@@H](CCCCN)C(N)=O)[C@@H](C)CC [P3V15] (Ac-DGKS[hArg]GIAYIEFK-NH2)
KD [1]: No binding

CC[C@H](C)[C@H](NC(=O)CNC(=O)[C@H](CCCCN)NC(=O)[C@H](CO)NC(=O)[C@H](CCCN)NC(=O)CNC(=O)[C@H](CC(=O)O)NC(C)=O)C(=O)N[C@@H](C)C(=O)N[C@@H](Cc1ccc(O)cc1)C(=O)N[C@H](C(=O)N[C@@H](CCC(=O)O)C(=O)N[C@@H](Cc1ccccc1)C(=O)N[C@@H](CCCCN)C(N)=O)[C@@H](C)CC [P3V16] (Ac-DG[Orn]SKGIAYIEFK-NH2)
KD [1]: No binding

CC[C@H](C)[C@H](NC(=O)CNC(=O)[C@H](CCCN)NC(=O)[C@H](CO)NC(=O)[C@H](CCCCN)NC(=O)CNC(=O)[C@H](CC(=O)O)NC(C)=O)C(=O)N[C@@H](C)C(=O)N[C@@H](Cc1ccc(O)cc1)C(=O)N[C@H](C(=O)N[C@@H](CCC(=O)O)C(=O)N[C@@H](Cc1ccccc1)C(=O)N[C@@H](CCCCN)C(N)=O)[C@@H](C)CC [P3V17] (Ac-DGKS[Orn]GIAYIEFK-NH2)
KD [1]: No binding

Ac-DGKSKGIAYIEFKDGKSKGIAYIEFK-NH2 [P3V20]
KD [1]: No binding; also recorded: did not show any binding

Ac-DGKSKGIAYIEFKGDGKSKGIAYIEFK-NH2 [P3V21]
KD [1]: No binding; also recorded: did not show any binding

Ac-DGRSRGIAYIEFK-NH2 [P3V9]
Kd [1]: 2.34 ± 0.49 µM

MJD CAA/G78 RNA (expanded, interrupted)
Kd [2]: 2.94 µM

MJD CAG27 RNA (unexpanded)
Kd [2]: 2.19 µM

MJD CAG78 RNA (expanded)
Kd [3]: 8.37 µM | Kd [4]: 31.3 µM | Kd [5]: 101 µM | Kd [6]: 16.6 µM | Kd [7]: 17.4 µM | Kd [8]: 51.3 µM | Kd [9]: 2 µM | Kd [10]: 2.21 µM | Kd [11]: 1.74 µM | Kd [12]: 4.44 µM | Kd [13]: 0.86 µM | Kd [14]: 23.8 µM | Kd [15]: 3.67 µM | Kd [2]: 0.33 µM | Kd [16]: 2.34 µM
